Measured values published in PMC13544220, “Glycemic and bodyweight effects of GIPR coding variation reflect differences in surface expression and intrinsic functional impairment” (Science Advances, 2026).

How the values were obtained:
Assay type in all cases: cell-based, human
[1] = test system: wild-type and variant SNAP-GIPR; assay: Surface SNAP-GIPR expression (SNAP-tag labelling) in AD293 cells; conditions: for AD293 Surface: Fig S3E, mean; for Surface SNAP-GIPR expression: sheet Fig 1C;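 as to all read-outs here: scaled to the experimental average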
Procedure, shortened: (§1)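 Read-out: whole-cell fluorescence of surface-only SNAP label (Alexa Fluor 647, 500 nM, 10 min, RT), wide-field 20X, several FOVs per well. Flat-field corrected, phase-contrast masked, nontransfected-well signal subtracted; normalized to experiment mean or wild-type.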

[2] = test system: wild-type and variant SNAP-GIPR; assay: Surface SNAP-GIPR expression (SNAP-tag labelling) in INS-1 cells; conditions: Fig 4G; Mean
Procedure, shortened: as §1

[3] = test system: wild-type and variant SNAP-GIPR; assay: Single-concentration GIP cAMP response by HTRF in AD293 cells; conditions: Fig S3F, HTRF, mean;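 also: ratio to experiment-wide average response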
Experimental: (§2) All variants were tested in parallel on each occasion to control for transfection efficiency differences between experiments.

[4] = test system: wild-type and variant SNAP-GIPR; assay: Single-concentration GIP cAMP response by HTRF in INS-1 cells; conditions: Fig S3E, mean
Experimental: as §2

[5] = test system: wild-type and variant SNAP-GIPR; assay: cADDis cAMP imaging in AD293 cells, ensemble, expression-matched and per decile; conditions: Fig S3F, cADDis, mean;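 also: Ensemble cells as % of IBMX/FSK response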
Procedure, shortened: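 AD293 cells reverse-transfected with wild-type or variant SNAP-GIPR plus cADDis Green Up sensor, variants run in parallel. After 24 h, surface receptor labelled with SNAP-Surface Alexa Fluor 647 (500 nM); single-cell cADDis fluorescence imaged at 37 °C in KRBH, 6 mM glucose, 0.1% BSA. Responses given ensemble, expression-matched by wild-type deciles, or per own decile.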

[6] = test system: wild-type and variant SNAP-GIPR; assay: Constitutive and agonist-mediated internalization, reversible SNAP-tag labelling, AD293 cells; set-up: key to Internalisation, Vehicle / Internalisation, +GIP / Internalisation, GIP-only: % internalization: residual fluorescence after Mesna vs pre-Mesna; Surface expression: unit not given here; conditions: Mean
Procedure, shortened: (§3)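 Percentage internalization is read as the fraction of specific SNAP fluorescence that survives Mesna stripping, compared with the image taken before Mesna. Wells are imaged in TNE buffer at pH 8.6 and again after 10 min.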

[7] = test system: wild-type and variant SNAP-GIPR; assay: Constitutive and agonist-mediated internalization, reversible SNAP-tag labelling, INS-1 cells; set-up: key to Internalisation, GIP-only / Internalisation, Vehicle / Internalisation, +GIP: % internalization: residual fluorescence after Mesna vs pre-Mesna; conditions: Mean
Procedure, shortened: as §3

B1: R136W (protein, UniProt P48546 22-466, looked up, variant R136W)
Gastric inhibitory …: RAETGSKGQTAGELYQRWERYRRECQETLAAAEPPSGLACNGSFDMYVCWDYAAPNATARASCPWYLPWHHHVAAGFVLRQCGSDGQWGLWRDHTQCENPEKNEAFLDQRLILEWLQVMYTVGYSLSLATLLLALLILSLFRRLHCTRNYIHINLFTSFMLRAAAILSRDRLLPRPGPYLGDQALALWNQALAACRTAQIVTQYCVGANYTWLLVEGVYLHSLLVLVGGSEEGHFRYYLLLGWGAPALFVIPWVIVRYLYENTQCWERNEVKAIWWIIRTPILMTILINFLIFIRILGILLSKLRTRQMRCRDYRLRLARSTLTLVPLLGVHEVVFAPVTEEQARGALRFAKLGFEIFLSSFQGFLVSVLYCFINKEVQSEIRRGWHHCRLRRSLGEEQRQLPERAFRALPSGSGPGEVPTSRGLSSGTLPGPGNEASRELESYC
[1]; column repeated, paired with cAMP 100 nM
  AD293 Surface: 1.539
[1]; paired with cAMP 100 pM
  AD293 Surface: 1.539
[1]; replicate 1
  Surface SNAP-GIPR expression: 1.301
[1]; replicate 2
  Surface SNAP-GIPR expression: 1.896
[1]; replicate 3
  Surface SNAP-GIPR expression: 1.558
[1]; replicate 4
  Surface SNAP-GIPR expression: 1.426
[1]; replicate 5
  Surface SNAP-GIPR expression: 1.728
[1]; replicate 6
  Surface SNAP-GIPR expression: 1.162
[1]; replicate 7
  Surface SNAP-GIPR expression: 1.369
[1]; replicate 8
  Surface SNAP-GIPR expression: 1.722
[1]; replicate 9
  Surface SNAP-GIPR expression: 1.795
[1]; replicate 10
  Surface SNAP-GIPR expression: 1.62
[1]; replicate 11
  Surface SNAP-GIPR expression: 1.44
[1]; replicate 12
  Surface SNAP-GIPR expression: 1.625
[1]; replicate 13
  Surface SNAP-GIPR expression: 1.681
[1]; replicate 14
  Surface SNAP-GIPR expression: 1.394
[1]; replicate 15
  Surface SNAP-GIPR expression: 1.54
[1]; replicate 16
  Surface SNAP-GIPR expression: 1.63
[1]; replicate 17
  Surface SNAP-GIPR expression: 1.488
[1]; replicate 18
  Surface SNAP-GIPR expression: 1.722
[1]; replicate 19
  Surface SNAP-GIPR expression: 2.073
[1]; replicate 20
  Surface SNAP-GIPR expression: 1.443
[1]; replicate 21
  Surface SNAP-GIPR expression: 1.607
[1]; replicate 22
  Surface SNAP-GIPR expression: 1.548
[1]; replicate 23
  Surface SNAP-GIPR expression: 1.562
[1]; replicate 24
  Surface SNAP-GIPR expression: 1.636
[1]; replicate 25
  Surface SNAP-GIPR expression: 1.259
[1]; replicate 26
  Surface SNAP-GIPR expression: 1.57
[1]; replicate 27
  Surface SNAP-GIPR expression: 1.295
[1]; replicate 28
  Surface SNAP-GIPR expression: 1.198
[1]; replicate 29
  Surface SNAP-GIPR expression: 1.582
[1]; replicate 30
  Surface SNAP-GIPR expression: 1.517
[1]; replicate 31
  Surface SNAP-GIPR expression: 1.447
[1]; replicate 32
  Surface SNAP-GIPR expression: 1.457
[1]; replicate 33
  Surface SNAP-GIPR expression: 1.855
[1]; replicate 34
  Surface SNAP-GIPR expression: 1.376
[1]; replicate 35
  Surface SNAP-GIPR expression: 1.615
[1]; replicate 36
  Surface SNAP-GIPR expression: 1.418
[1]; replicate 37
  Surface SNAP-GIPR expression: 1.346
[1]; replicate 38
  Surface SNAP-GIPR expression: 1.685
[1]; replicate 39
  Surface SNAP-GIPR expression: 1.551
[1]; replicate 40
  Surface SNAP-GIPR expression: 1.483
[1]; replicate 41
  Surface SNAP-GIPR expression: 1.492
[2]
  Surface expression: 1.406
[3]; AD293, 100 pM
  AD293 100 pM HTRF: 0.0806
[3]; AD293, 100 nM
  AD293 100 nM HTRF: 1.324
[4]
  INS-1 cAMP (100 nM): 1.164
[5]; AD293, 100 pM
  AD293 100 pM cADDis: 19.5296
[5]; AD293, 100 nM
  AD293 100 nM cADDis: 38.38
[6]; Fig 4E, GIP 100 nM
  +GIP internalisation (100 nM): 0.7747
  GIP-specific internalisation (100 nM): 0.1529
[6]; Fig 4E
  Constitutive internalisation (100 nM): 0.6218
  Surface expression: 1.49
[6]; Fig S4C, AD293
  Internalisation, +GIP: 52.0458
  Internalisation, GIP-only: 10.2879
  Internalisation, Vehicle: 41.7579
[7]; Fig 4G, GIP 100 nM
  +GIP internalisation (100 nM): 0.6838
  GIP-specific internalisation (100 nM): 0.1408
[7]; Fig 4G
  Constitutive internalisation (100 nM): 0.543
[7]; Fig S4C, INS-1
  Internalisation, +GIP: 46.5117
  Internalisation, GIP-only: 9.467
  Internalisation, Vehicle: 37.045
